Results on one molecule are retold here after US20220177575A1 (MAGENTA THERAPEUTICS, published 2022).

For the experiment, the target named is T1, Human CD117 antigen (human, UniProt P10721 26-520).
T1 construct: also called c-kit; Stem Cell Factor Receptor
The experiment is described as follows: chemical cross-linking, High-Mass MALDI MS and nLC-Orbitrap MS of the complex.

T1 sequence (P10721 other isoform, or with tags, fused parts or gaps limits assumed): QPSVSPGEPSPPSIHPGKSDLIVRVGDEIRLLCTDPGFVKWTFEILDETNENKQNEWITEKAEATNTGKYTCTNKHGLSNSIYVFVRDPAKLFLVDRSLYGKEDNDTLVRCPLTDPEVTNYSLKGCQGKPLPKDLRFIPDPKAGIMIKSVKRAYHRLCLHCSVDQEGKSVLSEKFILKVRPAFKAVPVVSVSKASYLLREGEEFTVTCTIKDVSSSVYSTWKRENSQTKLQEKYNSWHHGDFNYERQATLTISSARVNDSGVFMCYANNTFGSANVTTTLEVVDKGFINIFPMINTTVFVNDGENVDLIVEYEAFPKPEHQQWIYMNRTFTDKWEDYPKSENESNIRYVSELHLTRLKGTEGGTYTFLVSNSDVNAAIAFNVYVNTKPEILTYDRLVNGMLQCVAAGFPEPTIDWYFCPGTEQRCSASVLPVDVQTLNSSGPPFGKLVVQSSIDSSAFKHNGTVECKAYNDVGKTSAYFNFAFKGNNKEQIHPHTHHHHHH

B1: anti-CD117 antibody 85 (Ab85) (antibody, V domains shown)
VH: EVQLVQSGAEVKKPGESLKISCKGSGYSFTNYWIGWVRQMPGKGLEWMAIINPRDSDTRYRPSFQGQVTISADKSISTAYLQWSSLKASDTAMYYCARHGRGYEGYEGAFDIWGQGTLVTVSS
VL: DIQMTQSPSSLSASVGDRVTITCRSSQGIRSDLGWYQQKPGKAPKLLIYDASNLETGVPSRFSGSGSGTDFTLTISSLQPEDFATYYCQQANGFPLTFGGGTKVEIK
notes: Human antibody derived from CK6; also called Antibody HC-85/LC-85
As for B1, the binding result was “binds”.
